According to patent US20090280109A1, “ILT3 and ILT4-related compositions and methods” (The Trustees of Columbia University in the City of New York, priority 2001, published 2009):
“Also recorded” adds a separate entry of the source.

B1: IL-10: Interleukin 10, immunoregulatory cytokine (protein, UniProt P22301 19-178, looked up)
Interleukin-10: SPGQGTQSENSCTHFPGNLPNMLRDLRDAFSRVKTFFQMKDQLDNLLLKESLLEDFKGYLGCQALSEMIQFYLEEVMPQAENQDPDIKAHVNSLGENLKTLRLRLRRCHRFLPCENKSKAVEQVKNAFNKLQEKGIYKAMSEFDIFINYIEAYMTMKIRN

Test system: ILT3 and ILT4 on monocytes and DCs
Assay: Flow cytometry of ILT3, ILT4 and costimulatory molecules on APCs
Assay type: cell-based, human
Settings: for ILT3 and ILT4 expression on APC (monocytes and dendritic cells): treatment of APC
Protocol: To study the expression of ILT3 or ILT4 and costimulatory molecules on normal APCs from peripheral blood or spleen cell suspensions, APCs were incubated with TS cells for 18 h with or without CD40L-transfected D1.1 cells (see Results). The cells were then collected, washed and saturating amounts of mAbs to ILT3 or ILT4 were added (21, 22). After 30 min on ice, cells were washed twice, stained with PE-goat-anti-mouse or PE-goat-anti-rat (Caltech, Burlingame, Calif.), then washed twice again, incubated with mouse or rat IgG (as a blocking antibody, Vector Labs, Burlingame, Calif.), washed twice, then stained with mAbs to FITC-CD14 or cychrome-CD11c, FITC-HLA-DR and PerCP-CD3 (Pharmingen, San Diego, Calif.). In other samples, mAbs to PE-CD80 and PE-CD86 were added along with markers for monocytes and DCs. CD3^+ T cells were gated-out and CD14^+ monocytes or CD14^− CD11c^+HLA-DR^+ immature DCs were analyzed with CellQuest software on a G4 Apple Macintosh Computer. Annexin V and PI staining of target APCs was done as described (12). Five parameter analyses (forward scatter, side scatter and three fluorescence channels) were used for list mode data analysis. The FL3 channel was used as a fluorescence trigger and FL1 and FL2 as analysis parameters.

Row | Molecule | ILT3 and ILT4 expression on APC (monocytes and dendritic cells) | CD86 expression on human monocytes and DCs (within 20 h of incubation) | expression of ILT3 and ILT4 on the membranes of human monocytes and DCs (within 20 h of incubation)
1 | TNF-alpha | increase the expression | – | –
2 | B1 | induces upregulation; also recorded: increase the expression | down-regulated | up-regulated
